# Experiment: soluble on expression in E. coli; label from the status in PepcDB or PDB records
row,Sequence,soluble on expression in E. coli
1,MGSDKIHHHHHHMPEKKIDGRRKAAVLLVALGPEKAAQVMKHLDEETVEQLVVEIANIGRVTPEEKKQVLEEFLSLAKAKEMISEGGIEYAKKVLEKAFGPERARKIIERLTSSLQVKPFSFVRDTDPVQLVNFLQSEHPQTIAVVLSYLDPPVAAQILGALPEELQTEVLKRIALLERTSPEVVKEIERNLEKKISGFVSRTFSKVGGIDTAAEIMNNLDRTTEKKIMDKLVQENPELADEIRRRMFVFEDILKLDDRSIQLVLREVDTRDLALALKGASDELKEKIFKNMSKRAAALLKDELEYMGPVRLKDVEEAQQKIINIIRRLEEAGEIVIARGGGEELIM,not soluble
2,DSLVFVQTDKSIYKPGQTVKFRVVSMDENFHPLNELIPLVYIQDPKGNRIAQWQSFQLEGGLKQFSFPLSSEPFQGSYKVVVQKKSGGRTEHPFTVEEFVLP,soluble
3,MQEIEQRIYLAATYDTKGEEAEYLRQLLRRDGVMVVTVDVATSGQGSPAMVSAQEVAACYPQGAQAVFTGERGSAIVAMALAFERYLAGQRDVGAVLGIGGSGGTALVTPAMRALPVGVPKLMVSTMASGNVAPYVGPSDIAMMYSVTDVAGLNRISRRVLANAAGAIAGAFRQARQPIADDGRPAVGITMFGVTTPCVQHVTAALHDRYDCLVFHATGTGGQSMEKLADSGLLAGVLDLTTTEVCDFLFGGVLACTDDRFGAIARSGVPYVGSCGALDMVNFGALDTVPAACRERLLYPHNPQVTLMRTTAQENARQGAWIAERLNRCEGQVRFLIPEGGVSALDAPGQAFYDEAADAALFQALYDHVRQTDRRRLVRVPCHINDPLFARAAVEQFHEISQ,not soluble
4,GPGSMPWEVKADNAYGIDYNKLIDKFGCKLITKDMIERMERLTGQKAHHFFRRNIFLSHRDFEKILDVYEKGELFYLYTGRGPSSESLHVGHLVPFLFTKYLQDTFKVPLVIQLTDDEKFIFKSNLTLEETHNYAYENMKDIIACGFDPELTFIFTNLEYIAELYPDILRIEKKISCSQIKSIFGFKDSCNVGKFAFPAVQAAPAFSSSFPHIFGGRTDIHCLVPHAIDQDPYFRMVRDVAPRLGYLKPSSIHSIFLPSLQGSQTKMSASVQNSSIFVNDNEESIRNKIMKYAFSGGQATEEEQRRLGANLDVDVSWQYLRFLMEDDEKLEEIGKKYSSGEMLSGEIKSILVQELVKLTKNHQKNREAINDDVIAKFTNKSREQLLKLFINKK,soluble
5,MGSDKIHHHHHHGKKDKEKIIDDFKVAVVTQPLSENKVQYNMVEEMAKEYEEENKIDKDKDGQTKVKQTIKHVVLPENFTSNIDSAINKIVKLADDKEVQAIVVSTDQAGLLPALQKVKEKRPEIITISAPMGDDKNQLSQFVDVNLGVSAEERGKVLAERSKEMGAKAFIHYASTDDLKDVNIAKRLEMIKETCKNIGLPFVQVNTPNINTEEDKNKVKQFLNEDIEKQVKKYGKDINVFGVNEYMDEVILTKALELKYIVAEQSNPSPIQTYPSVMGLKISEKDAQNYDKINDMISEKAKAFGMSNRLGGYPMPMDAFLPSLAIYLATEMVKQDLTQEDVCDPDYLEAFTELRFGIGSEFTPLTEVLYNYQSVILSQLIY,not soluble
6,MGSDKIHHHHHHMIELKNVSMIFNPGTVNENQAISNISLKVREGDFITVIGSNGAGKSTLFNLIAGTITPSSGSIFLNDRNITREPEYKRARYIGRIFQNPLLGTASTMSLEDNMMITYKKGFKWLKRSLNHKMREYFRTELVQLKMGLEDRMKENLALFSGGQRQALTLLMMVLSRPDLILLDEHTAALDPKNAQIVLELTDKFIREYNLTAMMITHNMSHAIEYGNRLLMMDKGEIIFEAEGEEKRALTVEKLIDKFHQIRHTSFENDRTLLSDD,not soluble
7,MANDVMNRNYDFFDPMNFFNEVGNLGRDMFSGDSSMKTDVVEHDKDYVVTAELPGFKKDDIHVDYHDETLRISGKTEVNQSAKDDDGRILRQERRSQNVARSFYLPGIDLKNVKATYADGILTLTLPKQTEVDGSHEISIDLEHHHHHH,soluble
8,MDLFIKKRIKAIQKGDQNAYADLVDLYKDKIYRLCYRMLGNRHEAEDAAQEAFIRAYIHIDTYNPEMKFSTWLYRIATNLTIDKLRKRKPDVYLDEEVGGTDGLTMQAQLPSREASPEEAVESLELQETVQRAIEQLPEKYRSVIVLKYMEDLSLQEISEILGLPVGTVKTRLHRGREALRRQLGHL,not soluble
9,PPCDSIVVAYYFCGEPIPYETLVRGRAVTLGQFKELLTKKGSYRYYFKKVSDEFDCGVVFEEVREDEAILPVFEEKIIGKVEKVD,soluble
10,MGSDKIHHHHHHMKTLQTHRVLQALIGHFTPFLESGITELMINTEQELWLYKVNNTREKRGHALFDKAFLLRFCEQLASFRGLFFDEEHPTLNCSIPFTRYRVSANHFSITTNNQITLNIRVPRLKPLSLEDFTFKASDPKSLKDLALKGHNILISGETSSGKTSLLNALLDCVNKDERVVSVEDSQELDLKAFSNCVGLLVGKQENTRFNYEDALNMAMRLNPDRLIVGEIDTRNAALFLRLGNTGHKGMLSTIHANSAQNTLEALSLNLSMRYMYSLDKDLMRAYFKSAIDVIVHVNRINNERQIAEVLWTKEL,not soluble
11,MLFATSGSGSMLQSWNLKTSKRTGSFDAKSSINAVAISPDGNTLATGIRDNAIKLWNINDGKLIHTLTGHQGQVRTVAFSPDGTLLASGSSDGTVKLWNATTGKEINTFTAHKEQVWSVAFNPDGKTLASTGQDGSVKIWGVSPQLEHHHHHH,soluble
12,MSLGKPLIALGLEGSANKLGVGIILHDTNGSAKILANVRHTYITPPGQGFLPSDTAKHHRAWIIPLIKQAFAEAKISFKDIDCICFTKGPGIGAPLNSVALCARMLSLIHKKPLVAVNHCIGHIEMGREITGAQNPVVLYVSGGNTQVIAYSEKKYRIFGETLDIAIGNCLDRFARIIGLSNAPSPGYNIMQEAKKGKRFIELPYTVKGMDCSFSGLLSGVEAAATELLDPKNPSSVTKQDLCYSLQETGFAMLVEITERAMAHIRADSVLIVGGVGCNERLQQMMAEMSSDRGADVFSTDERFCIDNGIMIAQAGLLAYKTGDRCAVAESTITQRYRTDDVYISWRDEGHHHHHH,soluble
13,MPAKTGQEYMERLKRAKSSVYIHGEKVEDVTVHPAFRNVVRSMAALYDRQYEKPEKMLYRSPTTGQLVGMTFIQPTTIDELIARREATQEWARMSAGMMGRSPDYLNAEVMAMGVANDLFAEDDPMFAENAKNYYEYARENDISLTHTLIHPQMNRAKALHEQNDADVPLHLVERRKDGIIVSGIRLLATQGGITDEILVFPSTVKKSTAGEDPYALAFAIPNNTPGVKFICREAFDYGRSSWDHPLASRFEEGDAIVSFENVFVPWERVFVCGNSSICNRTFRETNAVIHMSHQVVAKNIVKTEFLLGVTLCLIEAIGIGEFQHVKDKGAEIMLVLETMKSHLYRAEHNAKRDRWGTMTPDFAALDAARNWYPRIYPRLSEIIRILGASGLMAIPTEADFHNEEIGEIVSRAMQGATVDGYERVQLFRLAWDLTMSAFGARQTHYEYYFFGDPVRMGMAYFDGYEKEPYKQFVREFLRGAKSVFIPSDNKH,not soluble
14,MIKLIATIIVSTLILGSCSTMKDEIEKVPASQYKGQDFQPLAEKSAIAHAKKYREEYEKLGEQFFKDNFSLNVKATNVVGSGDGAEVYVHCDDHDIVFNASIPFDMESIHEEGSMRSNDNGDTMSMMVGTVLSGFEYRANKEKMDNLEKYLKDKEDKYHYTGFTDEAITKTQNIGYQNNYFYITTSSTKLRDYRKHFEPLIKESDDDFKKHMKQLKSKKDTYINTEITTTLFSTLDEYDEKIIRKNTLSMAKEMRKEPSIPHNFTFHLLFSNNKLKINDPNISNNQINEYRVFDHDGFKNLEHHHHHH,not soluble
15,MGSDKIHHHHHHMYKHSIIPKPVSEYDLRLLRIFISVVEHGGFSSAANALGITRSTISVHMSNLETRMKLKLCLRGRGGFSLTEDGQAVYQAVLDLFATMDDFSLLIDSLGSELSGELIILCADQLDESKQHKMAQVIKKINDASPNLHLVLDGDSISNIEKALLKDKAHIALFPSYQQIEGLQYQPLFSESIYLCCGKQHPFFNQVDTAISEEILGQAAAIHPGINIDLAGKQQLEKLNLSAKSYQFDTRKAMILSGCYIGFMQQSFIQAELNRGEIRIIKPNSHHYQFRLSLVSKKTPREVKKVELLTNVFSQVFEL,not soluble

# From the DeepSol protein solubility set
